Laboratory results from patent US20090010911A1, “METHODS AND COMPOSITIONS FOR AFFECTING CYCLOPHILIN A REGULATION OF KINASES IN MODULATING CELLULAR ACTIVITIES” (IOWA STATE UNIVERSITY RESEARCH FOUNDATION, INC., priority 2007, published 2009).
Blank lines part the entries; values can stand above or below the substance they belong to.

How the values were obtained:
Itk LKD enzyme = molecular target: T1, Itk LKD enzyme (Mus musculus, UniProt Q03526); assay: Quantitative kinase assay, Km determination for Peptide B and PLCγ1 SH2C-Peptide B fusion; format: biochemical; conditions: phosphorylation by Itk LKD enzyme 0.9 μM, 200 μM ATP, room temperature
T1 construct: linker kinase domain (Itk LKD); made in house; host or cells: Sf9 insect cells (baculovirus), co-infected 1:1 with Lck baculovirus
T1 sequence (Q03526 344-625 limits assumed): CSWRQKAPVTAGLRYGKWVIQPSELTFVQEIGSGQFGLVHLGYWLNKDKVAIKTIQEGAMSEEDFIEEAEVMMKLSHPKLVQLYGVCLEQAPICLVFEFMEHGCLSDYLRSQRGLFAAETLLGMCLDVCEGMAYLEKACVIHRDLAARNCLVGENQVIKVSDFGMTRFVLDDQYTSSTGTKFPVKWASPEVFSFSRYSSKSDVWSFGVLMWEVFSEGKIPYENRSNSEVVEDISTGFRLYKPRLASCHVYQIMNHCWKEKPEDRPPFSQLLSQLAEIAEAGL
Description: 5(a) Construction of a PLCγ1 SH2C-Peptide B fusion protein was based on alignment of Y783 within the PLCγ1 linker and the Tyr of Peptide B. The 14 amino acids of Peptide B were used to replace the last 16 amino acids of PLCγ1 SH2C-Y783-. The Tyr that is phosphorylated in each substrate is boxed. A mutant construct is also shown that contains serine in place of the tyrosine of peptide B. This site was mutated to serine instead of phenylalanine due to solubility problems associated with the Tyr to Phe mutation. 5(b) FLAG-tagged Itk LKD enzyme (1 μM) was incubated with 20 μM of the PLCγ1 SH2C-Peptide B fusion protein (lane 4) or 20 μM of the PLCγ1 SH2C-Peptide B(YS) mutant protein (lane 5) in an in vitro kinase assay. Lanes 1-3 are Itk enzyme alone, PLCγ1 SH2C-Peptide B substrate alone and PLCγ1 SH2C-Peptide B(YS) substrate alone, respectively, that have each been subjected to the same in vitro kinase assay conditions. (c & d) FLAG-tagged Itk LKD enzyme was incubated with increasing amounts of biotinylated PLCγ1 SH2C-Peptide B 5(c) or biotinylated Peptide B alone 5(d) in an in vitro kinase assay. 5(e) Kinetic parameters describing phosphorylation of Peptide B and the PLCγ1 SH2C-Peptide B fusion protein by Itk. Data shown are the average of two independent experiments. […]

Itk full-length enzyme [1] = molecular target: T2, Itk full-length enzyme (Mus musculus, UniProt Q03526); assay: In vitro kinase assay with western blotting, phosphorylation of SH2 domain-containing substrates with added free SH2 domain or CypA; format: biochemical
T2 construct: Full-length Itk, Btk and Tec and the Itk kinase domain fragments were PCR amplified; made in house; host or cells: Sf9 insect cells (baculovirus), co-infected 1:1 with Lck baculovirus
T2 sequence (Q03526 1-625): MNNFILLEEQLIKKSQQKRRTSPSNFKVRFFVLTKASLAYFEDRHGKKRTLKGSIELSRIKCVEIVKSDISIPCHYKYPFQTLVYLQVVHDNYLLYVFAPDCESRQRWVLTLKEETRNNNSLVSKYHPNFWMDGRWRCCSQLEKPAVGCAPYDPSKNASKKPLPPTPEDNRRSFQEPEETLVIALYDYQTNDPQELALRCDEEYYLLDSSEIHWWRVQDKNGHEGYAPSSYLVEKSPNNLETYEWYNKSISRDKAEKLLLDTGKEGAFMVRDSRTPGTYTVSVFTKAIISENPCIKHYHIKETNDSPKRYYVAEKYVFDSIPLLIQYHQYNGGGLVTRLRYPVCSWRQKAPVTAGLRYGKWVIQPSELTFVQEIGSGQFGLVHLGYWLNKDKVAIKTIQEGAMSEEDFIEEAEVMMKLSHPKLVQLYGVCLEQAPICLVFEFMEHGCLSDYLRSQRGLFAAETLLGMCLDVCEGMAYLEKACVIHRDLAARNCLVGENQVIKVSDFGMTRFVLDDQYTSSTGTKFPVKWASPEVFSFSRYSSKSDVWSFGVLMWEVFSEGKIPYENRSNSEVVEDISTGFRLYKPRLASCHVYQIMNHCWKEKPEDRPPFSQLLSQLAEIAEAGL
Procedure: Substrate used in each experiment is indicated above each set of blots. 4(a) (left) Itk 32 substrate was incubated with Itk full-length enzyme as before (lane 1), or with Itk 32 domain:free Itk SH2 domain in ratios of 1:10, 1:25 or 1:50 (lanes 2-4, respectively) or equivalent ratios of PI3K N-terminal SH2 domain (lanes 5-7) and subjected to an in vitro kinase assay. […] Coomassie stain and an anti-FLAG blot (bottom panels) show protein levels. (right) The PLCγ1 SH2 domain competes with the PLCγ1 substrate in a similar manner. Lane 1 contains only Itk enzyme and PLCγ1 SH2C-Y783-substrate without additional free SH2 domain. Ratios of free SH2 domain to substrate are 1:5, 1:10 or 1:50 in lanes 2-4, respectively and equivalent ratios of PI3K SH2 domain are used in lanes 5-7. Coomassie stain of the gel and an anti-Itk blot (bottom panels) show protein levels. 4(b) Same experiment as shown in (a) using the Grb2 SH2 domain as a control. (left) Itk 32 substrate was incubated with Itk full-length enzyme (lane 1), or with Itk 32 domain:free Itk SH2 domain in ratios of 1:10 and 1:25 (lanes 2 & 3) or equivalent ratios of Grb2 SH2 domain (lanes 4 & 5) and subjected to an in vitro kinase assay. (right) Identical experiment following PLCγ1 substrate phosphorylation in the presence of the PLCγ1 and Grb2 SH2 domains. Lane 1 is PLCγ1 substrate alone; lanes 2 & 3 are PLCγ1 substrate:PLCγ1 SH2 domain in a 1:10 and 1:25 ratio, respectively and lanes 4 & 5 are identical ratios of PLCγ1 substrate:Grb2 SH2 domain. 4(c) The Itk SH2 domain competes with autophosphorylation of Y180 within full length Itk. For lanes 2-4, the amount of free SH2 domain is the same as used in panel (a), lanes 2-4. No exogenous SH2 domain has been added in lane 1 and full length Itk is both the enzyme and the substrate. Coomassie stain and an anti-FLAG blot (bottom panels) show protein levels. […] Initial velocities are shown for phosphorylation of peptide B (sequence shown in FIG. 5a) by full length Itk in the absence (column 1) and presence (column 2 and 3) of Itk SH2 domain. […]

full length Itk = molecular target: T3, full length Itk (Mus musculus, UniProt Q03526); assay: In vitro Itk kinase assay using Peptide B as the substrate (initial velocities); format: biochemical; conditions: CypA to Itk 0 to 100 times excess; Itk 100 and 600 nM
T3 construct: made in house; host or cells: Sf9 insect cells (baculovirus), co-infected 1:1 with Lck baculovirus
T3 sequence (Q03526 1-625): T2 sequence (Q03526 1-625)
Procedure: Substrate used in each experiment is indicated above each set of blots. 4(a) (left) Itk 32 substrate was incubated with Itk full-length enzyme as before (lane 1), or with Itk 32 domain:free Itk SH2 domain in ratios of 1:10, 1:25 or 1:50 (lanes 2-4, respectively) or equivalent ratios of PI3K N-terminal SH2 domain (lanes 5-7) and subjected to an in vitro kinase assay. […] Coomassie stain and an anti-FLAG blot (bottom panels) show protein levels. (right) The PLCγ1 SH2 domain competes with the PLCγ1 substrate in a similar manner. Lane 1 contains only Itk enzyme and PLCγ1 SH2C-Y783-substrate without additional free SH2 domain. Ratios of free SH2 domain to substrate are 1:5, 1:10 or 1:50 in lanes 2-4, respectively and equivalent ratios of PI3K SH2 domain are used in lanes 5-7. Coomassie stain of the gel and an anti-Itk blot (bottom panels) show protein levels. 4(b) Same experiment as shown in (a) using the Grb2 SH2 domain as a control. (left) Itk 32 substrate was incubated with Itk full-length enzyme (lane 1), or with Itk 32 domain:free Itk SH2 domain in ratios of 1:10 and 1:25 (lanes 2 & 3) or equivalent ratios of Grb2 SH2 domain (lanes 4 & 5) and subjected to an in vitro kinase assay. […]
The ratio of CypA to Itk varied between o and 100 times excess CypA. […] No change in Peptide B phosphorylation is detected. […]

Itk = molecular target: T4, Itk (Mus musculus, UniProt Q03526); assay: Pull-down experiment using purified Itk and purified CypA; format: binding; conditions: full length Itk or kinase domain alone immobilized on beads
T4 construct: Full-length Itk, Btk and Tec and the Itk kinase domain fragments were PCR amplified; made in house; host or cells: Sf9 insect cells (baculovirus), co-infected 1:1 with Lck baculovirus
T4 sequence (Q03526 1-625): T2 sequence (Q03526 1-625)
Procedure: In FIG. 16 full length Itk is immobilized on beads that are incubated with CypA. In FIG. 17 the kinase domain alone is immobilized on beads and incubated with CypA. […] The kinase domain alone contains the substrate docking site and so it is likely that CypA interacts with the Itk kinase domain in a manner that either completely or partially occludes the SH2 docking site.

Itk full-length enzyme [2] = molecular target: T2, Itk full-length enzyme; conditions: published data (Brazin et al. 2002); cited from earlier work

Substance: Aminohexanoyl biotin-EQEDEPEGIYGVLF-NH2 [Peptide B, reference compound]
Km (Itk LKD enzyme): 87 µM

inhibition of PLCγ1 SH2C-Y783- substrate phosphorylation by free SH2 domain (Itk full-length enzyme [1]; substrate:free SH2 domain ratios 1:5 to 1:50): do not inhibit
inhibition of Itk 32 substrate phosphorylation (Y180) by free SH2 domain (Itk full-length enzyme [1]; substrate:free SH2 domain ratios 1:10, 1:25, 1:50): do not inhibit
Substance: Grb2 SH2 domain: Grb2 SH2 domain, control SH2 domain [reference compound]

effect on phosphorylation of Itk SH3-SH2 protein substrate (Y180) (Itk full-length enzyme [1]; CypA:Itk 32 ratios 0.1:1, 1:1, 10:1, 25:1, signal reduced at 10:1 and 25:1): reduce phosphorylation
effect on phosphorylation kinetics of Peptide B (full length Itk): no effect
interaction with Itk (pull-down) (Itk): interacts directly with Itk
Substance: CypA: peptidyl-prolyl isomerase Cyclophilin A, target of the immunosuppressive drug cyclosporin A
effect on autophosphorylation of Itk in an in vitro kinase assay (Itk full-length enzyme [2]): reduces autophosphorylation of Itk
